Experimental data published in PMC4498786, “Dimerization-Induced Allosteric Changes of the Oxyanion-Hole Loop Activate the Pseudorabies Virus Assemblin pUL26N, a Herpesvirus Serine Protease” (PLoS Pathogens, 2015).

Experiments:
[1] = biological target: the molecule itself; assay: small-angle X-ray scattering (SAXS)
[2] = biological target: the molecule itself; assay: crystal structure

B1: pseudorabies virus (PrV) assemblin pUL26N, protease domain of pUL26, residues 1-224 (enzyme)
chain: MGPVYVSGYLALYDRDGGELALTREIVAAALPPAGPLPINIDHRPRCDIGAVLAVVDDDRGPFFLGVVNCPQLGAVLARAVGPDFFGDMRLSDEERLLYLLSNYLPSASLSSRRLAPGEAPDETLFAHVALCVIGRRVGTIVVYDASPEAAVAPFRQLSARARSELLARAAESPDRERVWHMSEEALTRALLSTAVNNMLLRDRWELVAARRREAGVRGHTYLQ
notes: also called PrV protease; VP24
In the case of B1, the “stoichiometry N” value [1] is reported as 2.

B2: diisopropyl fluorophosphate-inhibited pseudorabies virus (PrV) assemblin pUL26N, residues 1-224 (enzyme)
chain: B1 chain
B2 was tested, and the “stoichiometry N” value [2] was 2.
